Results as given in paper PMC2827695 (Journal of the American Society for Mass Spectrometry, 2009).

Biological target: T1, IFNAR1 (UniProt P17181 28-436)
T1 sequence (looked up): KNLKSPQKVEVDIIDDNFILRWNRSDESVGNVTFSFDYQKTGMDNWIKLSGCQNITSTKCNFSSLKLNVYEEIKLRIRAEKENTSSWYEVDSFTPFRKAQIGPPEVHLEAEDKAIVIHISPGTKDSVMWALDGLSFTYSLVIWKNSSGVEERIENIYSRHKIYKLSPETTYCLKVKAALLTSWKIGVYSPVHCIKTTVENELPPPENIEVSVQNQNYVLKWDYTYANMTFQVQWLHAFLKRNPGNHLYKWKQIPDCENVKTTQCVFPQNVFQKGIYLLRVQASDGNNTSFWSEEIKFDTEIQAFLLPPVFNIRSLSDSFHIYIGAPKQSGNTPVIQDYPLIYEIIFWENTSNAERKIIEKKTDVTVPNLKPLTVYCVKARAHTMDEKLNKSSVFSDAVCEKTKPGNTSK
Assay: native MS

B1: Interferon-β1a (ligand, UniProt P01574 22-187, looked up)
chain: MSYNLLGFLQRSSNFQCQKLLWQLNGRLEYCLKDRMNFDIPEEIKQLQQFQKEDAALTIYEMLQNIFAIFRQDSSSTGWNETIVENLLANVYHQINHLKTVLEEKLEKEDFTRGKLMSSLHLKRYYGRILHYLKAKEYSHCAWTIVRVEILRNFYFINRLTGYLRN
modifications: glycoprotein with a carbohydrate chain, several glycoforms (glycosylation site printed as Asn-90)
  stoichiometry N: 1
